For eight substances, stoichiometry N, response (fold of negative control) and stoichiometry N (NLRP1^CARD : ASC^CARD) results are on record in PMC7801473 (2021).

The target in the first experiment is NLRP1^CARD (human) (UniProt Q9C000). Briefly: SEC-MALS; Superdex 200 10/30, 500 mM NaCl, 20 mM CHES-HCl pH 9.0, 500 uL at 0.5 mg/mL, 0.5 mL/min; monomer to dimer.
Settings: not given
A general note: SEC sorts molecules by how far they enter the pores of the column.
By stoichiometry N is commonly meant the number of molecules, sites or subunits per partner or assembly. Regarding “NLRP1^CARD (from UniProt Q9C000-1 1397-1462) (domain or fragment)”, the stoichiometry N was found to be 2.

Another experiment has as its target ASC^CARD (self-interaction; state of second copy not shown). Briefly: M2H (mammalian two-hybrid, luciferase). As to conditions: HEK293T cells; luciferase normalized to Renilla; parent: est. 4.2; read off a plot.
Turning to “ASC^CARD (M2H fusion) (from UniProt Q9ULZ3-1) D134K”, the response (fold of negative control) was found to be 1.4.
On to “ASC^CARD (M2H fusion) (from UniProt Q9ULZ3-1) D143A; E144A”, for which the response (fold of negative control) turned out to be 1.2.
Consider “ASC^CARD (M2H fusion) (from UniProt Q9ULZ3-1) N128A; E130R”, for which the response (fold of negative control) came to 1.2.
Same read-out and setting: next, “ASC^CARD (M2H fusion) (from UniProt Q9ULZ3-1) R119D”: 1.3; “ASC^CARD (M2H fusion) (from UniProt Q9ULZ3-1) R125A; T127A”: 1.2.
On the same count and under the same terms, next, “ASC^CARD (M2H fusion) (from UniProt Q9ULZ3-1) R160E”: 1.2.
As to “ASC^CARD (M2H fusion) (from UniProt Q9ULZ3-1) W169G; N170A”, the response (fold of negative control) stood at 1.2.

The target in the next experiment is MBP-ASC^CARD (human) (UniProt Q9ULZ3). Briefly: SEC; His-tagged MBP-ASC^CARD incubated with a threefold concentration of untagged NLRP1^CARD for 4 h, first purified by Ni-affinity chromatography, then Superdex gel filtration; complex in the void (~9 mL); also run at 0.15, 0.5 and 1.0 M NaCl (complex decreased with salt); ratio from gray scales of the PAGE gel.
MBP-ASC^CARD (human), sequence (Q9ULZ3 95-195): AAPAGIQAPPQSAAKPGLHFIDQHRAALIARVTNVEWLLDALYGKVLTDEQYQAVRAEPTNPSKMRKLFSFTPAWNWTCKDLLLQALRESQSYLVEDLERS
Settings: not given
For “NLRP1^CARD (from UniProt Q9C000-1 1397-1462) (domain or fragment)”, the stoichiometry N (NLRP1^CARD : ASC^CARD) came to 0.5.
